These results are taken from US20110306125A1, “Protein Expression Methods” (Ironwood Pharmaceuticals, Inc., priority 2008, published 2011).

In the experiment the target is T1, GC-C receptor (Homo sapiens, UniProt P25092).
T1 construct: production of intracellular cGMP using cultured human colon carcinoma T84 cells; endogenous in cells; host or cells: T84 human colon carcinoma cells
The experiment in a line: production of intracellular cGMP in cultured human colon carcinoma T84 cells (cGMP ELISA). The format is cell-based. Particulars: intracellular cGMP by ELISA kit, compared with synthetic human uroguanylin, FIG. 8. On the procedure:
The ability of polypeptides, variant polypeptides and other compounds to bind to and activate the intestinal GC-C receptor can be tested using the T84 human colon carcinoma cell line (American Type Culture Collection (Bethesda, Md.).
Briefly, cells are grown to confluency in 24-well culture plates with a 1:1 mixture of Ham's F12 medium and Dulbecco's modified Eagle's medium (DMEM), supplemented with 5% fetal calf serum and are used at between passages 54 and 60.
Monolayers of T84 cells in 24-well plates are washed twice with 1 ml/well DMEM, then incubated at 37° C. for 10 min with 0.45 ml DMEM containing 1 mM isobutylmethylxanthine (IBMX), a cyclic nucleotide phosphodiesterase inhibitor. Test polypeptides (50Tl) are then added and incubated for 30 minutes at 37° C. The media is aspirated and the reaction is terminated by the addition of ice cold 0.5 ml of 0.1N HCl. […] Cyclic GMP is measured by EIA according to procedures outlined in the Cayman Chemical Cyclic GMP EIA kit.
The activity of the mature peptide was evaluated by the production of intracellular cGMP using cultured human colon carcinoma T84 cells, as described by Currie et al. (Pro. Natl. Acad. Sci. USA., 89:947-951, 1992). cGMP levels were subsequently measured using a cGMP ELISA kit (Cayman Chemical, Ann Arbor, Mich.) according to the manufacturer's protocol. […]
Background: In an ELISA, binding on a coated surface is turned into a signal by an enzyme label.

T1 sequence (P25092 24-1073): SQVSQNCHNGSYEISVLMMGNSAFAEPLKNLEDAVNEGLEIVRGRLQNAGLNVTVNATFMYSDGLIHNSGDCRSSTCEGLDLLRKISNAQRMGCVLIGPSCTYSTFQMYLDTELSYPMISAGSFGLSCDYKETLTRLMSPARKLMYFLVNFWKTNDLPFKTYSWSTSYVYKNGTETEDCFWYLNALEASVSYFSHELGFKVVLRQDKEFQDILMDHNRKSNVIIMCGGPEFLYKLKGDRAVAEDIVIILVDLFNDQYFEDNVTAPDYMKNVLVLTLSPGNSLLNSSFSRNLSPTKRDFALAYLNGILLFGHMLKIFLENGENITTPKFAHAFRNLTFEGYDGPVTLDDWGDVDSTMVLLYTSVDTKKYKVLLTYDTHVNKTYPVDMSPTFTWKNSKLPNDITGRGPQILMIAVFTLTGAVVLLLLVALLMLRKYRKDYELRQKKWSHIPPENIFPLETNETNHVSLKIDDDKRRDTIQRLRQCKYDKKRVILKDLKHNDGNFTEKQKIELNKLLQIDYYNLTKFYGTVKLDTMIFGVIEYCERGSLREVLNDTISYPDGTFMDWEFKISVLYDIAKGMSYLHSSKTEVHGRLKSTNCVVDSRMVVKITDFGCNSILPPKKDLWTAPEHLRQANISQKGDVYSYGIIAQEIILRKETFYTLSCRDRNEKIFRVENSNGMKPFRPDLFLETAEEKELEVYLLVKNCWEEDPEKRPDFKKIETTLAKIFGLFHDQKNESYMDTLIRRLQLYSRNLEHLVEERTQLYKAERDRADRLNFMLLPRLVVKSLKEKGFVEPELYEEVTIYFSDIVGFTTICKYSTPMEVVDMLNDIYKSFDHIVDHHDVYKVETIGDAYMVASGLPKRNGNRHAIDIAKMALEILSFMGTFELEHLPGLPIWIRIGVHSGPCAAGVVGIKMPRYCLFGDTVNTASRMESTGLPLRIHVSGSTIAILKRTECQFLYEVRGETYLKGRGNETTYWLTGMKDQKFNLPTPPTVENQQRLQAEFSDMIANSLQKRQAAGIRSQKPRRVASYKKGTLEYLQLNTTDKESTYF

Turning to NDDCELCVNVACTGCL [mature UGN peptide], the cGMP levels produced entry is recorded as “comparable to those levels produced using synthetic human UGN”.
